For orientation: IC50 means the concentration that inhibits the measured activity by half. The low end stands for inhibition by little substance, the high end for a need for much substance. As a reminder, the EC50 is the midpoint of the concentration-response curve.

Consider seven molecules from patent US20230167182A1 (BIOSION, published 2023).

Assay [1] concerns the target T1, human IL6R-Fc protein (human, biotin-labeled in the ELISAs (sites not given)).
T1 construct: In house made; also called biotin-labeled human IL6R-Fc protein
Nature of the assay: ligand blocking ELISA: antibody pre-incubated with biotin-labeled human IL6R-Fc, added to plate-coated human IL6 (blocked ligand: human IL6).

For assay [2], the target named is T1, human IL6R-Fc protein. Nature of the assay: capture ELISA: antibody captured on anti-IgG F(ab')2 coated plate, then biotin-labeled human IL6R-Fc, streptavidin-HRP. As for the experimental part: For the capture ELISA, 96-well micro plates were coated with 2 μg/ml AffiniPure Goat Anti-Mouse IgG, F(ab′)₂ fragment specific (Jackson ImmunoResearch Laboratories, Inc., Cat #115-005-072) in PBS, 100 μl/well, and incubated for 2 hours at 37° C. Plates were washed once with wash buffer (PBS+0.05% v/v Tween-20, PBST) and then blocked with 200 μl/well blocking buffer (5% w/v non-fatty milk in PBST) overnight at 4° C. […] Plates containing captured anti-IL6R antibodies were incubated with biotin-labeled human IL6R-Fc protein (prepared in house, SEQ ID NO: 43, 39.5 ng/ml in 2.5% w/v non-fatty milk in PBST, 100 μl/well) for 40 minutes at 37° C., washed 4 times, and incubated with streptavidin conjugated HRP (1:10000 dilution in PBST, Jackson ImmunoResearch Laboratories, Inc., Cat #016-030-084, 100 μl/well) for 40 minutes at 37° C. After a final wash, plates were incubated with 100 μl/well ELISA substrate TMB (InnoReagents, Cat #TMB-S-002). The reaction was stopped 3-10 minutes later at room temperature with 50 μl/well 1M H₂SO₄, and the absorbance of each well was read on a microplate reader using dual wavelength mode at 450 nm for TMB and 630 nm as the reference wavelength. Then the OD (450-630) values were plotted against antibody concentration. Data was analyzed using Graphpad Prism software and EC₅₀ values were reported.
For the capture ELISA, 96-well micro plates were coated with 2 μg/ml goat anti-human IgG (AffiniPure Goat Anti-Human IgG, F(ab′)₂ fragment specific, Jackson ImmunoResearch Laboratories, Inc., Cat #109-005-097) instead of goat anti-mouse IgG F(ab′)₂ fragment, 100 μl/well.

Assay [3] deals with T2, macaca IL6R-his protein (macaca mulatta).
T2 chain: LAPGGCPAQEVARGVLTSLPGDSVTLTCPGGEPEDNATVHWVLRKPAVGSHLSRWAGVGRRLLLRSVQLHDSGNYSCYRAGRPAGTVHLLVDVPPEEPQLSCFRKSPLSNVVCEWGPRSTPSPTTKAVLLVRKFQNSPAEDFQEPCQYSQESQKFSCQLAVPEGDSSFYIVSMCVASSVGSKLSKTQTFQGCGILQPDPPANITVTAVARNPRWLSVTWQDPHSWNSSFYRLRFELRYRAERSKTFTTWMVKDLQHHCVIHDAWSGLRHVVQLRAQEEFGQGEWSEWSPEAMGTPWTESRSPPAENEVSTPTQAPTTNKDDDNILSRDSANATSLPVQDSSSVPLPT
Nature of the assay: indirect ELISA on plate-coated macaca IL6R-his. In general terms: In an ELISA, binding on a coated surface is turned into a signal by an enzyme label.

Assay [4] deals with T1, human IL6R-Fc protein. Nature of the assay: benchmark blocking ELISA: antibody pre-incubated with biotin-labeled human IL6R-Fc, added to plate-coated Tocilizumab (competitor: Tocilizumab).
Assay [5] concerns the target T2, macaca IL6R-his protein. Nature of the assay: indirect ELISA on plate-coated macaca IL6R-his. As for the experimental part: The anti-IL6R antibodies were tested for their cross-reaction with macaca IL6R. Briefly, 96-well micro plates were coated with 2 μg/ml macaca IL6R-his protein (in house made, amino acid sequence set forth in SEQ ID NO:45) in carbonate/bicarbonate buffer (pH 9.6), 100 μl/well, for 2 hours at 37° C. ELISA plates were washed once with wash buffer (PBS+0.05% v/v Tween-20, PBST) and then blocked with 200 μl/well blocking buffer (5% w/v non-fatty milk in PBST) for 2 hours at 37° C. Plates were washed 4 times and incubated with 100 μl/well serially diluted anti-IL6R antibodies of the disclosure or controls, starting at 66.67 nM with 5-fold serial dilution in PBST with 2.5% w/v non-fat milk, and incubated at 37° C. for 40 minutes. ELISA plates were washed 4 times again and incubated with 100 μl/well Peroxidase AffiniPure Goat Anti-Mouse IgG, Fcγ Fragment Specific (1:5000 dilution in PBST buffer, Jackson ImmunoResearch Laboratories, Inc., Cat #115-035-071) for 40 minutes at 37° C. After the final wash, plates were incubated with 100 μl/well TMB (InnoReagents). The reaction was stopped 3-10 minutes later at room temperature with 50 μl/well 1M H₂SO₄, and the absorbance of each well was read on a microplate reader using dual wavelength mode with 450 nm for TMB and 630 nm as the reference wavelength. Then the OD (450-630) values were plotted against antibody concentration. Data was analyzed using Graphpad Prism software and EC₅₀ values were reported.

Like-named read-outs stand apart in the source and are kept apart here.

T1 sequence (chain, as listed by the source limits assumed): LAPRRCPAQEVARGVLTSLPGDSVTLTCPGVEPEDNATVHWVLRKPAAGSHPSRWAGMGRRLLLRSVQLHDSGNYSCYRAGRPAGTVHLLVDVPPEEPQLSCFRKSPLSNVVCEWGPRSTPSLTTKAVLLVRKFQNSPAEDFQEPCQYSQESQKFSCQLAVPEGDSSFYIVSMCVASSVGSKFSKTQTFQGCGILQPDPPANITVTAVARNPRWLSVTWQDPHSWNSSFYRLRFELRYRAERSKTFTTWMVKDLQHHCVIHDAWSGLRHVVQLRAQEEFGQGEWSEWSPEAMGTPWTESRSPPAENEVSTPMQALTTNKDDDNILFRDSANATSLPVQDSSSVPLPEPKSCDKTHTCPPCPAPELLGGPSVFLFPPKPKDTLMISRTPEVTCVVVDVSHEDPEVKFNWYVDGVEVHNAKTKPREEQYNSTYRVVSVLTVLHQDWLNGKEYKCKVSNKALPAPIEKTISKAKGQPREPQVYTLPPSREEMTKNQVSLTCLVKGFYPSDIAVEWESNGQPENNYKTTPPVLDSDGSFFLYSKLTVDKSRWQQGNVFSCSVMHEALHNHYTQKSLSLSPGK

B1: mouse anti-IL6R monoclonal antibody 1H7 (antibody, V domains shown)
VH: QVQLQQPGTELVKPGASVKLSCKASGYTFTNYWMHWVKQRPGQGLDWIGEINPTNGRTNYNENFKSKATLTVDKSSSTAYMQLSSLTSEDSAVYYCARLNTHYVFDSWGQGTTLTLSS
VL: EIVLTQSPTTLAASPGEKITFTCSVSSSISSNYLHWYQQKPGFSPKLLISRTSTLASGVPARFSGSGSGTSYSLTIGTMEAEDVATYYCQQGSGIPFTFGSGTKLELK
notes: Mouse hybridoma mAb
As for B1, the IC50 with human IL6R-Fc protein [1] came to 0.231 nM; with human IL6R-Fc protein [4] it was 0.186 nM. Besides, the EC50 with human IL6R-Fc protein [2] was determined as 0.164 nM; with macaca IL6R-his protein [3], 0.147 nM.

B2: mouse anti-IL6R monoclonal antibody 1G1 (antibody, V domains shown)
VH: QVQLQQPGAELVKPGASVKLSCKASGYTFTSYWMHWVKVRPGQGLEWIGEINPTNGRTNYNEDFKSKATLTVESSSSTAYMQFSSLTSEDSAVYYCARLNTHYVFDYWGQGTTLTVSS
VL: EIVLTQSPTILAASPGEKITFTCSVSSSISSNYLHWYQQKPGFSPKLLIYRTSNLASGVPARFSGSGSGTSYSLTIGTMEAEDVATYYCQQGSGIPFTFGSGTKLEIK
notes: Mouse hybridoma mAb
As for B2, it took 0.501 nM to reach a half-maximal effect with macaca IL6R-his protein [5] (EC50).

B3: Chimeric 1H7 (antibody, human IgG1, kappa, V domains shown)
VH: QVQLQQPGTELVKPGASVKLSCKASGYTFTNYWMHWVKQRPGQGLDWIGEINPTNGRTNYNENFKSKATLTVDKSSSTAYMQLSSLTSEDSAVYYCARLNTHYVFDSWGQGTTLTLSS
VL: EIVLTQSPTTLAASPGEKITFTCSVSSSISSNYLHWYQQKPGFSPKLLISRTSTLASGVPARFSGSGSGTSYSLTIGTMEAEDVATYYCQQGSGIPFTFGSGTKLELKR
notes: Mouse variable regions on human IgG1 / human kappa constant regions; also called chimeric antibody 1H7
B3: the concentration for half-maximal inhibition (IC50) with human IL6R-Fc protein [1] was determined as 0.261 nM; with human IL6R-Fc protein [4] it was 0.194 nM. The EC50 with human IL6R-Fc protein [2] came to 0.201 nM; with macaca IL6R-his protein [3], 0.227 nM.

B4: mouse anti-IL6R monoclonal antibody 1B5 (antibody, V domains shown)
VH: QVQLQQPGAELVKPGASVKLSCKASGYTFTSYWMHWVKQRPGQGLEWIGEINPSNGRTNYNENFKSKATLTVDKSSSTAYMQLSSLTSEDSAVYYCARLNTHYVFDYWGQGTTLTVSS
VL: EIVLTQSPTILAASPGEKITFTCSVSSSISSNYLHWYQQKPGFSPKLLIYRTSNLASGVPARFSGSGSGTSYSLTIGTMEAEDVATYYCQQGSGIPFTFGSGTKLEIK
notes: Mouse hybridoma mAb
As for B4, the IC50 with human IL6R-Fc protein [1] was found to be 0.281 nM; with human IL6R-Fc protein [4] it was 0.23 nM.

B5: Tocilizumab (antibody, human IgG1, kappa, V domains shown)
VH: QVQLQESGPGLVRPSQTLSLTCTVSGYSITSDHAWSWVRQPPGRGLEWIGYISYSGITTYNPSLKSRVTMLRDTSKNQFSLRLSSVTAADTAVYYCARSLARTTAMDYWGQGSLVTVSS
VL: DIQMTQSPSSLSASVGDRVTITCRASQDISSYLNWYQQKPGKAPKLLIYYTSRLHSGVPSRFSGSGSGTDFTFTISSLQPEDIATYYCQQGNTLPYTFGQGTKVEIKR
notes: In house made; also called benchmark; Actemra
Turning to B5, the IC50 in the assay with human IL6R-Fc protein [1] was found to be 0.773 nM; in the assay with human IL6R-Fc protein [4] it was 0.812 nM. For the same molecule, the EC50 was determined as 0.504 nM in the assay with human IL6R-Fc protein [2], 0.0575 nM with macaca IL6R-his protein [5] and 0.201 nM in the assay with macaca IL6R-his protein [3].

B6: mouse anti-IL6R monoclonal antibody 1H9 (antibody, V domains shown)
VH: QVQLQQPGAELVKPGASVKLSCKASGYTFTSYWMHWVKLRPGQGLEWIGEINPTNGRTNYYEKFKNRATLTADKSSSTAYMQLSSLTFEDSAVYFCAKFHYSRWYFDVWGTGTTVTVSS
VL: DIVMTQSQKFMSTSVGDRVSITCKASQNVGTAVVWYQQKPGQSPKLLINPASNRYTGVPDRFTGSGSGTDFTLTISNMQSEDLADYFCQQYSSYPLTFGAGTKLELK
notes: Mouse hybridoma mAb
In turn, B6 gave an EC50 with macaca IL6R-his protein [5] of 0.341 nM.

B7: humanized antibody hu1H7-V5 (antibody, human IgG1, kappa, V domains shown)
VH: QVQLVQSGAEVKKPGASVKVSCKASGYTFTNYWMHWVRQAPGQGLEWIGEINPTNGRTNYNENFKSRVTLTVDTSTSTVYMELSSLRSEDTAVYYCARLNTHYVFDSWGQGTLVTVSS
VL: EIVLTQSPGTLSLSPGERATLSCSVSSSISSNYLHWYQQKPGLSPRLLISRTSTLASGIPARFSGSGSGTEYTLTISRMQSEDFAVYYCQQGSGIPFTFGQGTKLEIKR
notes: Human IgG1 / kappa
For the molecule B7, the values for the EC50 in the assay with human IL6R-Fc protein [2] and with macaca IL6R-his protein [3] were 0.31 nM and 0.242 nM, respectively.
